Assay results reported in patent US20190055291A1 (FONDATION THE ARK, published 2019).
Bridge positions count the residues as written; N and C are the ends. Square brackets hold non-standard residues; d marks the D form. R8 = C=CCCCCCC[C@@](C)(N)C(=O)O; S5 = C=CCCC[C@](C)(N)C(=O)O

B1: 3ac (peptide)
peptide: EQSLXFIRXSDXLLHXV
modifications: X504, X508, X511 and X515 are (S)-2-(4-pentenyl)alanine (two staples); N-terminus acetylated; C-terminus amidated

Columns and labels:
[1] = target: RSV fusion glycoprotein F (trimeric HR1 target) on mCherry-expressing RSV virus (rHRSV-mCherry) (human RSV (rHRSV), strain ); test: cell-based or functional assay
[2] = target: RSV fusion glycoprotein F (trimeric HR1 target) on recombinant GFP-expressing RSV virus (strain A2) (RSV (strain A2), UniProt P03420 26-574); test: cell-based or functional assay

Row | Binder | EC50 values [µM], rHRSV-mCherry inhibition assay in HEp-2 cells [1] [µM] | EC50, block of RSV-GFP infection of A549 cells (flow cytometry) [2] [µM]
1 | FDASISQVNEKINQSLAFIRKSDELLHNVNAGKST [T118] | 6.33 | 
2 | YDPLVFPSDEFDASISQVNEKINQSLAFIRKSDEL [T108] |  | 20.9
3 | B1 |  | 15.3
4 | Ac-EKINQSL[R8]FIRKSD[S5]LLHNV-NH2 (staple 8-15) [4e] |  | > 90
